The values below come from patent US20250353926A1 (ENLAZA THERAPEUTICS, published 2025).

Assay [1] has as its target T1, PSMA expressed on target cells (PC3pip cells, high density; 22Rv1 cells, low density) (UniProt Q04609 1-750, limits assumed). Kind of assay: cell-based or functional assay.
The target of assay [2] is T2, Biotinylated his-tagged human PSMA (human, UniProt Q04609 44-750, limits assumed, biotinylated (site not stated)).
T2 construct: also called immobilized PSMA; not shown: his tag
T2 sequence (Q04609 44-750 limits assumed): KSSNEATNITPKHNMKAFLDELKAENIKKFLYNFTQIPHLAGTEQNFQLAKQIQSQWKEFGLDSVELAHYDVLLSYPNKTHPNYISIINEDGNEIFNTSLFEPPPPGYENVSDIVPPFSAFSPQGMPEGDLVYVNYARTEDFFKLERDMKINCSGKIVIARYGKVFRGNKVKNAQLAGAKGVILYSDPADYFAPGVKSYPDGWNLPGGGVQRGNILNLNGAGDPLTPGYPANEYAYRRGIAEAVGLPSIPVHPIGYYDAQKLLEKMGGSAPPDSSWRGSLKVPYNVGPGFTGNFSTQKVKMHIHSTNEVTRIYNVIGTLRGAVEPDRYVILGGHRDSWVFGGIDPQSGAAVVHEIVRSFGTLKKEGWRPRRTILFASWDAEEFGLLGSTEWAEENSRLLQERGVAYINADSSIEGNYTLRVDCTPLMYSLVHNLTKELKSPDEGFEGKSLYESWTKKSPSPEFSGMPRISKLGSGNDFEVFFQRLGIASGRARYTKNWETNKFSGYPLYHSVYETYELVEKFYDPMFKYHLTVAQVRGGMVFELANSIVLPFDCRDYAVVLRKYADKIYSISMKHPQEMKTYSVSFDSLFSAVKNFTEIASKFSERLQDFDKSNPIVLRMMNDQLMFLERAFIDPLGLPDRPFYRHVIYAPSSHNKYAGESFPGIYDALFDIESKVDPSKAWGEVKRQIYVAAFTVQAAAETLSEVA
Kind of assay: BLI, biotinylated his-tagged human PSMA on streptavidin sensors, pH 7.4.

Assay [3] addresses T1, PSMA expressed on target cells (PC3pip …). Kind of assay: cell-based or functional assay. The source holds these as a separate data set.
Assay [4] has the same target. In words: cell-based or functional assay. This is another data set of the same source.
The target of assay [5] is T3, biotin-labeled CD16a (Acro P/N CDA-H82E8) (human, UniProt P08637 17-208, biotin-labeled (site not stated)).
T3 construct: also called recombinant human CD16a; immobilized CD16a
T3 sequence (P08637 17-208 limits assumed): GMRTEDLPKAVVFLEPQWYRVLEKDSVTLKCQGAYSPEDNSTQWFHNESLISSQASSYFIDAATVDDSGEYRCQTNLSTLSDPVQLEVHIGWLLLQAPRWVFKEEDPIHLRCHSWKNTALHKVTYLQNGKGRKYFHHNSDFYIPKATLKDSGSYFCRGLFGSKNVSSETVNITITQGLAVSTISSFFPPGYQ
Kind of assay: BLI, biotin-labeled CD16a on streptavidin biosensors, pH 7.4. In general terms: BLI is a label-free optical method that tracks binding on a fibre tip over time.

For assay [6], the target named is T1, PSMA expressed on target cells (PC3pip …). In words: cell-based or functional assay. This is another data set of the same source.
The target is the same in assay [7]. In words: cell-based or functional assay. This is another data set of the same source.
For assay [8], the target named is T2, Biotinylated his-tagged human PSMA. In words: BLI, biotinylated his-tagged human PSMA on streptavidin sensors, pH 5.7.
For assay [9], the target named is T1, PSMA expressed on target cells (PC3pip …). In words: cell-based or functional assay. This is another data set of the same source.
For assay [10] the target is unchanged. In words: cell-based or functional assay. This is another data set of the same source.
The target of assay [11] is T2, Biotinylated his-tagged human PSMA. Kind of assay: BLI, biotinylated his-tagged human PSMA on streptavidin sensors, pH 7.4; covalent crosslinking.
For assay [12] the target is unchanged. In words: BLI, biotinylated his-tagged human PSMA on streptavidin sensors, pH 7.4; covalent crosslinking; pH 7.4; apparent KD under covalent crosslinking.
Assay [13] has the same target. In words: BLI, biotinylated his-tagged human PSMA on streptavidin sensors, pH 7.4; non 1:1 binding (covalent crosslinking); pH 7.4; non 1:1 binding (crosslinking to PSMA).
The target of assay [14] is T3, biotin-labeled CD16a (Acro P/N …). Kind of assay: BLI (Octet), biotin-CD16a on streptavidin sensors, dilutions from 200 nM to 3.125 nM.

Substitutions are numbered along the chain they refer to. Names may count otherwise.

T1 sequence (Q04609 whole entry): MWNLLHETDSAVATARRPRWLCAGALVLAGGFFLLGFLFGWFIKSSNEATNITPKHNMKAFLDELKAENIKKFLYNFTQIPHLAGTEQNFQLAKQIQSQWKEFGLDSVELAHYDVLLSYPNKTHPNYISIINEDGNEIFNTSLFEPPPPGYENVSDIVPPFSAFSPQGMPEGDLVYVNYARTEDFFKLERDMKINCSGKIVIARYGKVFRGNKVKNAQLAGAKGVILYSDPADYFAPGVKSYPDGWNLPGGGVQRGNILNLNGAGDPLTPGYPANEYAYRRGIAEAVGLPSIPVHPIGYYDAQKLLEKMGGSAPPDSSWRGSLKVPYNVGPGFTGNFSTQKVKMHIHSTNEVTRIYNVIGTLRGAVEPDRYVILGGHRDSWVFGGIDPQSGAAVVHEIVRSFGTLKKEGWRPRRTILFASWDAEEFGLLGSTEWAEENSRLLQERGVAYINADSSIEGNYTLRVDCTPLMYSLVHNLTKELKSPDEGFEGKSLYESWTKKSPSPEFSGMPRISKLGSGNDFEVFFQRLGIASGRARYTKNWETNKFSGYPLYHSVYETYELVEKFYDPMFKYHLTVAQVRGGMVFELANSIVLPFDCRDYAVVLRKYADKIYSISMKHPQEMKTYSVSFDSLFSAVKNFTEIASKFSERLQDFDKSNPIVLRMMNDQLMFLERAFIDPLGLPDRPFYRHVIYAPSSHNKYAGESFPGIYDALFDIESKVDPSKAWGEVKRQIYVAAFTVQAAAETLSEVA

B1: C34 (bispecific antibody)
chain: QVQLQESGGGSVEAGGSLRLSCARSGWPYSTYSMNWFRQAPGKEREAVAGISSTMSGIIFAESKAGQFTISQDNAKNTVYLQMNNLKPEDTAIYYCAARRXFSLSSSSDDFDYWGQGTQVTVSSGGGGSGGGGSGGGGSGGGGSEVQLVESGGGLVQPGGSLRLSCVASGDVHKINFLGWYRQAPGKEREKVAHISIGDQTDYADSAKGRFTISRDESKNMVYLQMNSLKPEDTAVYFCRAFSRIYPYDYWGQGTLVTVSSAAAYPYDVPDYGSSPSTPPTPSPSTPPHHHHHH
modifications: FSY (fluorosulfonyltyrosine) at the position printed X in SEQ ID NO: 49 (position 101 of the anti-PSMA sdAb domain)
On to B1, for which, in assay [1], the “EC50; T-cell luciferase reporter assay with PC3pip target cells, 6 hr” value (shortened to “EC50; T-cell luciferase reporter assay”) was 1.42 nM and the “fold potency against C33; T-cell luciferase reporter assay, PC3pip” value is 21.9 fold.

B2: C33 (bispecific antibody)
chain: B1 chain with X101Y
Consider B2, for which the “EC50; T-cell luciferase reporter assay” value in assay [1] came out at 31.1 nM.

B3: C25 (C37-L3-C36) (bispecific antibody)
chain: EVQLVESGGGLVQPGESLTLSCVVAGSIFSFAMSWYRQAPGKERELVARIGSDDRVTYADSVKGRFTISRDNIKRTAGLQMNSLKPEDTAVYYCNAQTDLRDWTVREYWGQGTQVTVSSGGGGSGGGGSGGGGSGGGGSQVQLQESGGGSVEAGGSLRLSCARSGWPYSTYSMNWFRQAPGKEREAVAGISSTMSGIIFAESKAGQFTISQDNAKNTVYLQMNNLKPEDTAIYYCAARRYFSLSSSSDDFDYWGQGTQVTVSSAAAYPYDVPDYGSSPSTPPTPSPSTPPHHHHHH
notes: also called C25 (TYR); non-covalent construct C25
In assay [2], B3 came in with a Kd of 1160 nM, a koff of 0.03 s⁻¹ and a kon of 25900 M⁻¹ s⁻¹. In assay [3], the “EC50 [nM]; NK cell-mediated killing of PC3pip cells, 5 h washout, 20 h incubation” value is 26.2 nM. In assay [4], the “EC50 [nM]; primary human NK cell-mediated killing of PC3pip cells, no washout, 20 h incubation” value worked out at 7.02 nM. In assay [5], this molecule returned a Kd of 1.11 nM, an off-rate constant (koff) of 0.000152 s⁻¹ and a kon of 137000 M⁻¹ s⁻¹. Besides, in [6], the “EC50; ADCC reporter assay, 22Rv1 4 h washout, 24 h endpoint” value is 62.6 nM. For the same molecule, the “EC50; ADCC luciferase reporter assay (Jurkat CD16a V158 reporter cells), PC3pip 24 h continuous” value in assay [7] was found to be 9.2 nM. In assay [8], this molecule gave a Kd of 1570 nM, a koff of 0.0483 s⁻¹ and an association rate constant (kon) of 30800 M⁻¹ s⁻¹. Moreover, in [9], the “EC50; ADCC reporter assay, 22Rv1 24 h continual” value worked out at 12.1 nM. Also, in [10], the “EC50; ADCC reporter assay, PC3pip 4 h washout, 24 h endpoint” value amounted to 0.141 nM.

B4: C22 (C37-L3-C35) (bispecific antibody)
chain: B3 chain with Y240X
modifications: FSY (fluorosulfonyltyrosine) at the position printed X in SEQ ID NO: 37 (position 101 of the anti-PSMA sdAb domain)
notes: anti-CD16a sdAb C37 - 4x(G4S) - anti-PSMA sdAb-FSY C35; entry holds HA tag, SP tag and His6; also called C22 (FSY); FSY-containing bispecific construct
In the case of B4, the koff in assay [11] was less than 1e-07 s⁻¹; in assay [5], 8.69e-05 s⁻¹; in assay [8], 0.0465 s⁻¹. Further, the “EC50 [nM]; NK cell-mediated killing of PC3pip cells, 5 h washout, 20 h incubation” value in [3] turned out to be 0.188 nM. The values for the Kd in [12], in [5] and in assay [8] were less than 1 nM, 1.48 nM and no more than 1140 nM, respectively. Further, the “EC50 [nM]; primary human NK cell-mediated killing of PC3pip cells, no washout, 20 h incubation” value in assay [4] was determined as 0.066 nM. Further, the figures for the kon in [5], in assay [13] and in assay [8] were 58800 M⁻¹ s⁻¹, 12800 M⁻¹ s⁻¹ and 40700 M⁻¹ s⁻¹, respectively. The “EC50; ADCC reporter assay, 22Rv1 4 h washout, 24 h endpoint” value in assay [6] was 3.19 nM. The “fold potency against C25; NK cell-mediated killing of PC3pip cells, 5 hr incubation and washout” value in [1] came out at 140 fold. For the same molecule, the “fold potency against C25; NK cell-mediated killing of PC3pip cells, test article present throughout” value in [1] was 106 fold. Further, in assay [7], the “EC50; ADCC luciferase reporter assay (Jurkat CD16a V158 reporter cells), PC3pip 24 h continuous” value is 0.219 nM. The “EC50; ADCC reporter assay, 22Rv1 24 h continual” value in assay [9] is 0.54 nM. The “EC50; ADCC reporter assay, PC3pip 4 h washout, 24 h endpoint” value in assay [10] was 0.667 nM.

B5: C32 (bispecific antibody)
chain: QVQLQESGGGSVEAGGSLRLSCARSGWPYSTYSMNWFRQAPGKEREAVAGISSTMSGIIFAESKAGQFTISQDNAKNTVYLQMNNLKPEDTAIYYCAARRYFSLSSSSDDFDYWGQGTQVTVSSGGGGSGGGGSGGGGSGGGGSEVQLVESGGGLVQPGGSLRLSCAASGDIYKSFDMGWYRQAPGKQRDLVAVIGSRGNNRGRTNYADSVKGRFTISRDGTGNTVYLLMNKLRPEDTAIYYCNTAPLVAGRPWGRGTLVTVSSAAAYPYDVPDYGSSPSTPPTPSPSTPPHHHHHH
For B5, in assay [1], the “EC50; T-cell luciferase reporter assay” value was determined as 1.42 nM.

B6: C27 (bispecific antibody)
chain: EVQLVESGGGPVQAGGSLRLSCAASGRTYRGYSMGWFRQAPGKEREFVAAIVWSGGNTYYEDSVKGRFTISRDNAKNTMYLQMTSLKPEDSATYYCAAKIRPYIFKIAGQYDYWGQGTLVTVSSGGGGSGGGGSGGGGSGGGGSQVQLQESGGGSVEAGGSLRLSCARSGWPYSTYSMNWFRQAPGKEREAVAGISSTMSGIIFAESKAGQFTISQDNAKNTVYLQMNNLKPEDTAIYYCAARRXFSLSSSSDDFDYWGQGTQVTVSSAAAYPYDVPDYGSSPSTPPTPSPSTPPHHHHHH
modifications: FSY (fluorosulfonyltyrosine) at the position printed X in SEQ ID NO: 42 (position 101 of the anti-PSMA sdAb domain)
Consider B6, for which, in [1], the “EC50; T-cell luciferase reporter assay” value amounted to 0.59 nM; the “fold efficacy against the commercial CD3-PSMA bispecific antibody; T-cell luciferase reporter assay, PC3pip” value was found to be 1.2 fold; the “fold potency against C26; T-cell luciferase reporter assay, PC3pip” value came out at 12.7 fold; the “fold potency against the commercial CD3-PSMA bispecific antibody; T-cell luciferase reporter assay, PC3pip” value is 1.4 fold.

B7: C26 (bispecific antibody)
chain: B6 chain with X245Y
B7: the “EC50; T-cell luciferase reporter assay” value in [1] was 7.4 nM.

B8: C31 (bispecific antibody)
chain: QVQLQESGGGSVEAGGSLRLSCARSGWPYSTYSMNWFRQAPGKEREAVAGISSTMSGIIFAESKAGQFTISQDNAKNTVYLQMNNLKPEDTAIYYCAARRYFSLSSSSDDFDYWGQGTQVTVSSGGGGSGGGGSGGGGSGGGGSEVQLVESGGGPVQAGGSLRLSCAASGRTYRGYSMGWFRQAPGKEREFVAAIVWSGGNTYYEDSVKGRFTISRDNAKNTMYLQMTSLKPEDSATYYCAAKIRPYIFKIAGQYDYWGQGTLVTVSSAAAYPYDVPDYGSSPSTPPTPSPSTPPHHHHHH
As to B8, in assay [1], the “EC50; T-cell luciferase reporter assay” value stood at 5.33 nM.

B9: C30 (bispecific antibody)
chain: EVQLVESGGGLVQPGGSLRLSCVASGDVHKINFLGWYRQAPGKEREKVAHISIGDQTDYADSAKGRFTISRDESKNMVYLQMNSLKPEDTAVYFCRAFSRIYPYDYWGQGTLVTVSSGGGGSGGGGSGGGGSGGGGSQVQLQESGGGSVEAGGSLRLSCARSGWPYSTYSMNWFRQAPGKEREAVAGISSTMSGIIFAESKAGQFTISQDNAKNTVYLQMNNLKPEDTAIYYCAARRXFSLSSSSDDFDYWGQGTQVTVSSAAAYPYDVPDYGSSPSTPPTPSPSTPPHHHHHH
modifications: FSY (fluorosulfonyltyrosine) at the position printed X in SEQ ID NO: 45 (position 101 of the anti-PSMA sdAb domain)
Turning to B9, in assay [1], the “EC50; T-cell luciferase reporter assay” value is 0.51 nM; the “fold potency against C29; T-cell luciferase reporter assay, PC3pip” value worked out at 11.8 fold; the “fold potency against the commercial CD3-PSMA bispecific antibody; T-cell luciferase reporter assay, PC3pip” value turned out to be 1.6 fold.

B10: C29 (bispecific antibody)
chain: B9 chain with X238Y
Take B10: the “EC50; T-cell luciferase reporter assay” value in assay [1] stood at 5.98 nM.

B11: C28 (bispecific antibody)
chain: EVQLVESGGGLVQPGGSLRLSCAASGDIYKSFDMGWYRQAPGKQRDLVAVIGSRGNNRGRTNYADSVKGRFTISRDGTGNTVYLLMNKLRPEDTAIYYCNTAPLVAGRPWGRGTLVTVSSGGGGSGGGGSGGGGSGGGGSQVQLQESGGGSVEAGGSLRLSCARSGWPYSTYSMNWFRQAPGKEREAVAGISSTMSGIIFAESKAGQFTISQDNAKNTVYLQMNNLKPEDTAIYYCAARRYFSLSSSSDDFDYWGQGTQVTVSSAAAYPYDVPDYGSSPSTPPTPSPSTPPHHHHHH
Turning to B11, the “EC50; T-cell luciferase reporter assay” value in assay [1] is 14.8 nM.

B12: C37 (anti-CD16a sdAb) (VHH)
VHH: EVQLVESGGGLVQPGESLTLSCVVAGSIFSFAMSWYRQAPGKERELVARIGSDDRVTYADSVKGRFTISRDNIKRTAGLQMNSLKPEDTAVYYCNAQTDLRDWTVREYWGQGTQVTVSS
notes: also called CD16a sdAb domain alone; monospecific anti-CD16a sdAb
Turning to B12, in assay [14], the binding result is given as “binds”.

What is called koff is a measure of how fast the partners let go of each other. Low values mean slow dissociation, high ones fast dissociation. In general, kon refers to a measure of how fast the partners come together. Lower therefore signals slow association.
